From publication PMC6249037

Columns and labels:
[1] = molecular target: N15 TCRαβ heterodimer, TCRα R251L (mouse)
[2] = molecular target: N15 TCRαβ heterodimer, WT TCRα (mouse) (UniProt P01849)
Chain of UniProt P01849 (P01849 whole entry, looked up, one chain of several): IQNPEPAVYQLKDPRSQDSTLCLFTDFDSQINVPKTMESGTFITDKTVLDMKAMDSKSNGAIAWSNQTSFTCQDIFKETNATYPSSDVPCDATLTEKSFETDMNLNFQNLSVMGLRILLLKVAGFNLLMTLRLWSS

## VSV8K^b (vesicular stomatitis virus nucleoprotein octapeptide VSV8 bound to [change]^b) (peptide-MHC)
[1]
  catch bond force maximum: 10 pN
[2]
  force maximum for catch-bond formation (CD3δ-SxxS cell line): 15 pN
  maximal bond lifetime (catch bond; CD3δ-SxxS cell line): 8 s
